Positions count from the first letter of the chain named. Names and notes keep the numbering of the source. Like-named read-outs stand apart in the source and are kept apart here. One block for each binder: values may come before it.
Legend:
[1] = target: T1, human PD-1 (hPD-1) receptor expressed on cells (human, UniProt Q15116 25-288); test: cell-based or functional assay
[2] = target: T1, human PD-1 (hPD-1) receptor expressed …; test: CELISA on CHO-hPD-1 cells
[3] = target: T2, hPD-1/Fc (R & D Systems) (human, UniProt Q15116 25-167); test: protein ELISA, hPD-1/Fc immobilized
T2 construct: also called human PD-1/Fc; PD-1-Fc fusion protein; not shown: Fc part of the bought fusion protein, not described

[4] = target: T3, cynomolgus macaque PD-1 receptor on stably transfected CHO-K1 cells (cynomolgus macaque, UniProt B0LAJ3 25-288); test: CELISA on cynomolgus PD-1 transfected CHO-K1 cells
T3 construct: also called cynomolgus PD-1; cynomolgous PD-1

[5] = target: T4, mouse PD-1 receptor on stably transfected CHO-K1 cells (mouse, UniProt Q02242 25-288); test: CELISA and other assays on mouse PD-1 transfected CHO-K1 cells
T4 construct: whole, on cells
T4 sequence (looked up): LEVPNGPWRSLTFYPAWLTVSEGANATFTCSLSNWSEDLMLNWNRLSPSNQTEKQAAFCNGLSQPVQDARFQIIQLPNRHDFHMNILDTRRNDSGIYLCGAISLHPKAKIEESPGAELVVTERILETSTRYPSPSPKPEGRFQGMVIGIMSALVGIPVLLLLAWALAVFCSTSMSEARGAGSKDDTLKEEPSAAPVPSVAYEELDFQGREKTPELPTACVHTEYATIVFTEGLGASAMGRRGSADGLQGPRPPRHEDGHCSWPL

[6] = target: T1, human PD-1 (hPD-1) receptor expressed …; test: CELISA on CHO cells expressing human PD-1, 450/620 nm
[7] = target: T1, human PD-1 (hPD-1) receptor expressed …; test: FMAT, blockade of labeled hPD-L1/Fc binding to CHO-hPD-1 cells
[8] = target: T1, human PD-1 (hPD-1) receptor expressed …; test: FMAT, blockade of labeled hPD-L2/Fc binding to CHO-hPD-1 cells
[9] = target: T2, hPD-1/Fc (R & D Systems); test: bio-light interferometry (ForteBio Octet), PD-1/Fc on biosensor
[10] = target: T1, human PD-1 (hPD-1) receptor expressed …; test: FACS, blockade of hPD-L1/Fc binding to CHO cells expressing human PD-1
[11] = target: T1, human PD-1 (hPD-1) receptor expressed …; test: as above; remark: listed apart in the source
[12] = target: T2, hPD-1/Fc (R & D Systems); test: bio-light interferometry (ForteBio Octet); lower end tied to 09A by Table II
[13] = target: T1, human PD-1 (hPD-1) receptor expressed …; test: FMAT competition on CHO-hPD-1 cells; blocked ligand: fluorescently labelled hPD-L1/Fc at a constant concentration
[14] = target: T1, human PD-1 (hPD-1) receptor expressed …; test: FMAT competition on CHO-hPD-1 cells; blocked ligand: fluorescently labelled hPD-L2/Fc at a constant concentration
[15] = target: cynomolgous PD-1 (form in the kinetic assay not stated) (cynomolgus macaque); test: kinetic analysis, format for cynomolgus PD-1 not stated
[16] = target: T3, cynomolgus macaque PD-1 receptor on …; test: inhibition of ligand (PD-L1, PD-L2) binding to cynomolgous PD-1
[17] = target: T1, human PD-1 (hPD-1) receptor expressed …; test: CELISA on CHO-hPD-1 cells; remark: listed apart in the source
[18] = target: T2, hPD-1/Fc (R & D Systems); test: protein ELISA, hPD-1/Fc immobilized; remark: listed apart in the source
[19] = target: T1, human PD-1 (hPD-1) receptor expressed …; test: FMAT, blockade of hPD-L1/Fc binding to CHO-hPD-1 cells
[20] = target: T1, human PD-1 (hPD-1) receptor expressed …; test: FMAT, blockade of hPD-L2/Fc binding to CHO-hPD-1 cells
[21] = target: T2, hPD-1/Fc (R & D Systems); test: bio-light interferometry (ForteBio Octet), PD-1/Fc on biosensor; remark: listed apart in the source

T3 sequence (B0LAJ3 entry or part of it limits assumed): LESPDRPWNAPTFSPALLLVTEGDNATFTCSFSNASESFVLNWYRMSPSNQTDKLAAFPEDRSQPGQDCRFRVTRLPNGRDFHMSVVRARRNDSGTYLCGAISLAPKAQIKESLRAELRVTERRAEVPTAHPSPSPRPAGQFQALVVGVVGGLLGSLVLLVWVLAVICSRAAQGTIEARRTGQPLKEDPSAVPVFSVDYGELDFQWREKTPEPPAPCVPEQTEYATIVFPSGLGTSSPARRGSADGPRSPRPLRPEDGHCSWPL
T1 sequence (Q15116 25-288): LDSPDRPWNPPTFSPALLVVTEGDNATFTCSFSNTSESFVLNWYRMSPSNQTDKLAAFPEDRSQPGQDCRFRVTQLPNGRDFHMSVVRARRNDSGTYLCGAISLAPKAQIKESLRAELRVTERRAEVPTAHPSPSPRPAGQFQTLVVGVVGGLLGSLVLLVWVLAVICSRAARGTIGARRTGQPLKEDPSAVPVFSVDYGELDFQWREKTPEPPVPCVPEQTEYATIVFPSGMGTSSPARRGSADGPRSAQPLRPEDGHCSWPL
T2 sequence (Q15116 25-167 limits assumed): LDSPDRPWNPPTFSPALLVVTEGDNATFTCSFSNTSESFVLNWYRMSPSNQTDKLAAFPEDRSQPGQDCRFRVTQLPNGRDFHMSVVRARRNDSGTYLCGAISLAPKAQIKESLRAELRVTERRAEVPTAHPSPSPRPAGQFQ

- fold change in IFNgamma, SEB stimulated blood of patient A (prostate), 25 ug/mL hPD-1.09A vs SEB alone [1]: 1.9 fold
- fold change in IFNgamma, SEB stimulated blood of patient B (prostate), 25 ug/mL hPD-1.09A vs SEB alone [1]: 1.2 fold
- fold change in IFNgamma, SEB stimulated blood of patient C (prostate), 25 ug/mL hPD-1.09A vs SEB alone [1]: 2 fold
- fold change in IFNgamma, SEB stimulated blood of patient D (melanoma), 25 ug/mL hPD-1.09A vs SEB alone [1]: 1.5 fold
- fold change in IL-2, SEB stimulated blood of patient A (prostate), 25 ug/mL hPD-1.09A vs SEB alone [1]: 3.4 fold
- fold change in IL-2, SEB stimulated blood of patient B (prostate), 25 ug/mL hPD-1.09A vs SEB alone [1]: 2.1 fold
- fold change in IL-2, SEB stimulated blood of patient C (prostate), 25 ug/mL hPD-1.09A vs SEB alone [1]: 2 fold
- fold change in IL-2, SEB stimulated blood of patient D (melanoma), 25 ug/mL hPD-1.09A vs SEB alone [1]: 2 fold
- fold change in IL-5, SEB stimulated blood of patient A (prostate), 25 ug/mL hPD-1.09A vs SEB alone [1]: 0.7 fold
- fold change in IL-5, SEB stimulated blood of patient B (prostate), 25 ug/mL hPD-1.09A vs SEB alone [1]: 0.4 fold
- fold change in IL-5, SEB stimulated blood of patient C (prostate), 25 ug/mL hPD-1.09A vs SEB alone [1]: 0.9 fold
- fold change in IL-5, SEB stimulated blood of patient D (melanoma), 25 ug/mL hPD-1.09A vs SEB alone [1]: 0.4 fold
- fold change in IL-6, SEB stimulated blood of patient A (prostate), 25 ug/mL hPD-1.09A vs SEB alone [1]: 2.1 fold
- fold change in IL-6, SEB stimulated blood of patient B (prostate), 25 ug/mL hPD-1.09A vs SEB alone [1]: 2.2 fold
- fold change in IL-6, SEB stimulated blood of patient C (prostate), 25 ug/mL hPD-1.09A vs SEB alone [1]: 2.4 fold
- fold change in IL-6, SEB stimulated blood of patient D (melanoma), 25 ug/mL hPD-1.09A vs SEB alone [1]: 1.9 fold
- fold change in IL-13, SEB stimulated blood of patient A (prostate), 25 ug/mL hPD-1.09A vs SEB alone [1]: 0.8 fold
- fold change in IL-13, SEB stimulated blood of patient B (prostate), 25 ug/mL hPD-1.09A vs SEB alone [1]: 0.6 fold
- fold change in IL-13, SEB stimulated blood of patient C (prostate), 25 ug/mL hPD-1.09A vs SEB alone [1]: 1.1 fold
- fold change in IL-13, SEB stimulated blood of patient D (melanoma), 25 ug/mL hPD-1.09A vs SEB alone [1]: 0.5 fold
- fold change in IL-17, SEB stimulated blood of patient A (prostate), 25 ug/mL hPD-1.09A vs SEB alone [1]: 1.8 fold
- fold change in IL-17, SEB stimulated blood of patient B (prostate), 25 ug/mL hPD-1.09A vs SEB alone [1]: 2.6 fold
- fold change in IL-17, SEB stimulated blood of patient C (prostate), 25 ug/mL hPD-1.09A vs SEB alone [1]: 2.4 fold
- fold change in IL-17, SEB stimulated blood of patient D (melanoma), 25 ug/mL hPD-1.09A vs SEB alone [1]: 2 fold
- fold change in TNFalpha, SEB stimulated blood of patient A (prostate), 25 ug/mL hPD-1.09A vs SEB alone [1]: 2 fold
- fold change in TNFalpha, SEB stimulated blood of patient B (prostate), 25 ug/mL hPD-1.09A vs SEB alone [1]: 1.5 fold
- fold change in TNFalpha, SEB stimulated blood of patient C (prostate), 25 ug/mL hPD-1.09A vs SEB alone [1]: 2.4 fold
- fold change in TNFalpha, SEB stimulated blood of patient D (melanoma), 25 ug/mL hPD-1.09A vs SEB alone [1]: 1.9 fold
- EC50 [2]: 0.113 nM
- EC50 [3]: 0.123 nM
- binding result [4]: binds
- binding result [5]: no binding
- EC50 (read off the curve) [6]: ~0.1 nM
- IC50 [7]: 0.9 pM
- IC50 [8]: 1.7 pM
- Kd [9]: 0.022 nM
- koff [9]: 3.6e-05 s⁻¹
- kon [9]: 1.64e+06 M⁻¹ s⁻¹
- IC50 [10]: < 1 nM
- IC50 [11]: 0.8 pM
- Kd [12]: 0.02 nM
- IC50 (read off the curve) [13]: ~0.8 nM
- IC50 (read off the curve) [14]: ~2 nM
B1: hPD-1.09A (antibody, V domains shown)
VH: QVQLQQPGAELVKPGTSVKLSCKASGYTFTNYYMYWVKQRPGQGLEWIGGINPSNGGTNFNEKFKNKATLTVDSSSSTTYMQLSSLTSEDSAVYYCTRRDYRFDMGFDYWGQGTTLTVSS
VL: DIVLTQSPASLAVSLGQRAAISCRASKGVSTSGYSYLHWYQQKPGQSPKLLIYLASYLESGVPARFSGSGSGTDFTLNIHPVEEEDAATYYCQHSRDLPLTFGTGTKLELK

- EC50 [2]: 0.079 nM
- EC50 [3]: 0.076 nM
- binding result [4]: binds
- binding result [5]: no binding
- EC50 (read off the curve) [6]: ~0.08 nM
- IC50 [7]: 0.73 pM
- IC50 [8]: 2.1 pM
- Kd [9]: 0.0241 nM
- koff [9]: 3.03e-05 s⁻¹
- kon [9]: 1.25e+06 M⁻¹ s⁻¹
- IC50 [10]: < 1 nM
- IC50 [11]: 0.9 pM
- IC50 (read off the curve) [13]: ~0.7 nM
- IC50 (read off the curve) [14]: ~2 nM
B2: hPD-1.08A (antibody, V domains shown)
VH: QVQLQQPGAELVKPGASVKLSCKASGYTFTSYYLYWMKQRPGQGLEWIGGVNPSNGGTNFSEKFKSKATLTVDKSSSTAYMQLSSLTSEDSAVYYCTRRDSNYDGGFDYWGQGTTLTVSS
VL: B1 VL with A9T, A20T, G28S, Y34F, S47P, Y53F, Y57N, R96W, D97E, T104A

- Kd [15]: < 0.12 nM
- IC50 [16]: < 1 nM
B3: h409A11 (antibody, human IgG4 S228P, kappa, V domains shown)
VH: QVQLVQSGVEVKKPGASVKVSCKASGYTFTNYYMYWVRQAPGQGLEWMGGINPSNGGTNFNEKFKNRVTLTTDSSTTTAYMELKSLQFDDTAVYYCARRDYRFDMGFDYWGQGTTVTVSS
VL: EIVLTQSPATLSLSPGERATLSCRASKGVSTSGYSYLHWYQQKPGQAPRLLIYLASYLESGVPARFSGSGSGTDFTLTISSLEPEDFAVYYCQHSRDLPLTFGGGTKVEIKR
notes: also called humanized IgG4 version of 09A antibody (409A-H + K09A-L-11)

- EC50 [17]: 0.063 nM
- EC50 [18]: 0.09 nM
- Kd [15]: < 0.12 nM
- IC50 [19]: 0.696 nM
- IC50 [20]: 0.81 nM
- IC50 [16]: < 1 nM
- Kd [21]: 0.0273 nM
- koff [21]: 2.72e-05 s⁻¹
- kon [21]: 997000 M⁻¹ s⁻¹
B4: h409A16 (antibody, human IgG4 S228P, kappa, V domains shown)
VH: B3 VH
VL: EIVLTQSPLSLPVTPGEPASISCRASKGVSTSGYSYLHWYLQKPGQSPQLLIYLASYLESGVPDRFSGSGSGTDFTLKISRVEAEDVGVYYCQHSRDLPLTFGQGTKLEIKR
notes: also called humanized IgG4 version of 09A antibody (409A-H + K09A-L-16)

- EC50 [17]: 0.083 nM
- EC50 [18]: 0.088 nM
- IC50 [19]: 0.818 nM
- IC50 [20]: 0.463 nM
- IC50 [16]: < 1 nM
- Kd [21]: 0.191 nM
- koff [21]: 0.000191 s⁻¹
- kon [21]: 1e+06 M⁻¹ s⁻¹
B5: h409A17 (antibody, human IgG4 S228P, kappa, V domains shown)
VH: B3 VH
VL: B4 VL with E1D, L4M, S7T, D74A, V89L
notes: also called humanized IgG4 version of 09A antibody (409A-H + K09A-L-17)
